Data taken from US20230130737A1.

How the values were obtained:
[1] = molecular target: trifunctional high FHR4-valence heteromultimer multi-FHR4.C4bpα.His/multi-2D3 VHH anti-Her2.C4bpα.FLAG/mono-eGFP.C4bpβ (human) (UniProt Q92496); assay: SPR (Biacore); FH multimer immobilised via Ni2+/NTA, C3b dose series as analyte
[2] = molecular target: trifunctional high FHR4-valence heteromultimer multi-FHR4.C4bpα.His/multi-2D3 VHH anti-Her2.C4bpα.FLAG/mono-eGFP.C4bpβ (human) (UniProt Q92496); assay: SPR (Biacore); affinity with factor B against C3b alone
[3] = molecular target: trifunctional high FHR4-valence heteromultimer multi-FHR4.C4bpα.His/multi-2D3 VHH anti-Her2.C4bpα.FLAG/mono-eGFP.C4bpβ (human) (UniProt Q92496); assay: SPR (Biacore); bound RU with factor B against C3b alone
[4] = molecular target: trifunctional high FHR4-valence heteromultimer multi-FHR4.C4bpα.His/multi-2D3 VHH anti-Her2.C4bpα.FLAG/mono-eGFP.C4bpβ (human) (UniProt Q92496); assay: SPR (Biacore); FH multimer immobilised via Ni2+/NTA, C3b dose series with about 20 µg/ml Factor B as analyte

Sequence of trifunctional high FHR4-valence heteromultimer multi-FHR4.C4bpα.His/multi-2D3 VHH anti-Her2.C4bpα.FLAG/mono-eGFP.C4bpβ (human) (Q92496 other isoform, or with tags, fused parts or gaps, chain 1 of 3): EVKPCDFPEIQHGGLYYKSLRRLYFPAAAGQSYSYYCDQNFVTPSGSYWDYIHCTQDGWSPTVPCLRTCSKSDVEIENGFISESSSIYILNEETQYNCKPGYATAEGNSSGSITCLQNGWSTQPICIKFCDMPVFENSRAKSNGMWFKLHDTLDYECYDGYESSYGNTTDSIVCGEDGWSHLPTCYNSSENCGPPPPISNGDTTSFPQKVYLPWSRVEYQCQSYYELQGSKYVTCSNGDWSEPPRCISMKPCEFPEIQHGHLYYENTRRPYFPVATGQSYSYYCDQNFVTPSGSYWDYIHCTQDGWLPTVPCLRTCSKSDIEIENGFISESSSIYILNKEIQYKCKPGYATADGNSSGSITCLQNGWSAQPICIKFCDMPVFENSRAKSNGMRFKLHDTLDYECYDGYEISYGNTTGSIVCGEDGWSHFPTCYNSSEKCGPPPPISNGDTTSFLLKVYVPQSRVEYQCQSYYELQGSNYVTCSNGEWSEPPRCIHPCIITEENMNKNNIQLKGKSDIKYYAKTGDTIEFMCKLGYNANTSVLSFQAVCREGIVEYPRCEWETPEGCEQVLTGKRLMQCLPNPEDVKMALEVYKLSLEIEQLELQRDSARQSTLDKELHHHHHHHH
Sequence of trifunctional high FHR4-valence heteromultimer multi-FHR4.C4bpα.His/multi-2D3 VHH anti-Her2.C4bpα.FLAG/mono-eGFP.C4bpβ (human) (P04003 540-597, chain 2 of 3, further chain): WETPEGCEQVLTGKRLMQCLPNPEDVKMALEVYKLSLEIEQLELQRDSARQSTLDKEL
Sequence of trifunctional high FHR4-valence heteromultimer multi-FHR4.C4bpα.His/multi-2D3 VHH anti-Her2.C4bpα.FLAG/mono-eGFP.C4bpβ (human) (P20851 137-252, chain 3 of 3, further chain): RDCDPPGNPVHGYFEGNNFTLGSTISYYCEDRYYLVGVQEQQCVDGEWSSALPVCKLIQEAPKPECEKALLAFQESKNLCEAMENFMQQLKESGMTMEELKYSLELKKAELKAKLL

Kd [1] | increase of binding affinity against C3b alone [2] | enhancement factor of bound C3b against C3b alone [3] | Kd [4] | Substance
952 nM | – | – | – | C3b (from UniProt P01024 749-1663)
– | 2 logs | 5 fold | 8.73 nM | C3b in the presence of Factor B (about 20 µg/ml) (from UniProt P01024 23-1663; P00751 26-764)
